Data as given in patent publication US20160272683A1 (Novo Nordisk, published 2016).
* marks the point of attachment. C18 diacid = O=C(O)CCCCCCCCCCCCCCCCC(=O)*

T1: human calcitonin receptor (human, UniProt P30988 25-474)
T1 construct: whole, on cells; also called hCT-R; hCTR
T1 sequence (looked up): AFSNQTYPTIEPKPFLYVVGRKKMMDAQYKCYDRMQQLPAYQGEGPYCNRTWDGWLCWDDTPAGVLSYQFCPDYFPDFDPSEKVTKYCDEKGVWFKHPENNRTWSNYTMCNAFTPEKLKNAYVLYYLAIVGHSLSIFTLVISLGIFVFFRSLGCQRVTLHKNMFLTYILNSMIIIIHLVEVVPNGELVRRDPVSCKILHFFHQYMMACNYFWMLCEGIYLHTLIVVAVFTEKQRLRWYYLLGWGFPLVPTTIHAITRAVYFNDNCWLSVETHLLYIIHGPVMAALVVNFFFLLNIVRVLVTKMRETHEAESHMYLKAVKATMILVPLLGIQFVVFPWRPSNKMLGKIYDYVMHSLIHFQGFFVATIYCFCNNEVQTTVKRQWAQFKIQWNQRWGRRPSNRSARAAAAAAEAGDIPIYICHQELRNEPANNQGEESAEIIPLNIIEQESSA

B1: [N-terminal(C18 diacid), 5V, 9V]mimylin (peptide)
peptide: {C18 diacid}-EASEVSTAVLGRLSAELHELATLPRTETGPESP-NH2
SMILES: CC(C)C[C@H](NC(=O)[C@H](CCC(=O)O)NC(=O)[C@H](Cc1c[nH]cn1)NC(=O)[C@H](CC(C)C)NC(=O)[C@H](CCC(=O)O)NC(=O)[C@H](C)NC(=O)[C@H](CO)NC(=O)[C@H](CC(C)C)NC(=O)[C@H](CCCNC(=N)N)NC(=O)CNC(=O)[C@H](CC(C)C)NC(=O)[C@@H](NC(=O)[C@H](C)NC(=O)[C@@H](NC(=O)[C@H](CO)NC(=O)[C@@H](NC(=O)[C@H](CCC(=O)O)NC(=O)[C@H](CO)NC(=O)[C@H](C)NC(=O)[C@H](CCC(=O)O)NC(=O)CCCCCCCCCCCCCCCCC(=O)O)C(C)C)[C@@H](C)O)C(C)C)C(=O)N[C@@H](C)C(=O)N[C@H](C(=O)N[C@@H](CC(C)C)C(=O)N1CCC[C@H]1C(=O)N[C@@H](CCCNC(=N)N)C(=O)N[C@H](C(=O)N[C@@H](CCC(=O)O)C(=O)N[C@H](C(=O)NCC(=O)N1CCC[C@H]1C(=O)N[C@@H](CCC(=O)O)C(=O)N[C@@H](CO)C(=O)N1CCC[C@H]1C(N)=O)[C@@H](C)O)[C@@H](C)O)[C@@H](C)O
notes: also called Ex. #24
B2: [N-terminal(C18 diacid), 9V, 18A]mimylin (peptide)
peptide: {C18 diacid}-EASELSTAVLGRLSAELAELATLPRTETGPESP-NH2
SMILES: CC(C)C[C@H](NC(=O)[C@H](CCC(=O)O)NC(=O)[C@H](C)NC(=O)[C@H](CO)NC(=O)[C@H](CC(C)C)NC(=O)[C@H](CCCNC(=N)N)NC(=O)CNC(=O)[C@H](CC(C)C)NC(=O)[C@@H](NC(=O)[C@H](C)NC(=O)[C@@H](NC(=O)[C@H](CO)NC(=O)[C@H](CC(C)C)NC(=O)[C@H](CCC(=O)O)NC(=O)[C@H](CO)NC(=O)[C@H](C)NC(=O)[C@H](CCC(=O)O)NC(=O)CCCCCCCCCCCCCCCCC(=O)O)[C@@H](C)O)C(C)C)C(=O)N[C@@H](C)C(=O)N[C@@H](CCC(=O)O)C(=O)N[C@@H](CC(C)C)C(=O)N[C@@H](C)C(=O)N[C@H](C(=O)N[C@@H](CC(C)C)C(=O)N1CCC[C@H]1C(=O)N[C@@H](CCCNC(=N)N)C(=O)N[C@H](C(=O)N[C@@H](CCC(=O)O)C(=O)N[C@H](C(=O)NCC(=O)N1CCC[C@H]1C(=O)N[C@@H](CCC(=O)O)C(=O)N[C@@H](CO)C(=O)N1CCC[C@H]1C(N)=O)[C@@H](C)O)[C@@H](C)O)[C@@H](C)O
notes: also called Ex. #33
B3: [N-terminal(C18 diacid), 9I]mimylin (peptide)
peptide: {C18 diacid}-EASELSTAILGRLSAELHELATLPRTETGPESP-NH2
SMILES: CC[C@H](C)[C@H](NC(=O)[C@H](C)NC(=O)[C@@H](NC(=O)[C@H](CO)NC(=O)[C@H](CC(C)C)NC(=O)[C@H](CCC(=O)O)NC(=O)[C@H](CO)NC(=O)[C@H](C)NC(=O)[C@H](CCC(=O)O)NC(=O)CCCCCCCCCCCCCCCCC(=O)O)[C@@H](C)O)C(=O)N[C@@H](CC(C)C)C(=O)NCC(=O)N[C@@H](CCCNC(=N)N)C(=O)N[C@@H](CC(C)C)C(=O)N[C@@H](CO)C(=O)N[C@@H](C)C(=O)N[C@@H](CCC(=O)O)C(=O)N[C@@H](CC(C)C)C(=O)N[C@@H](Cc1c[nH]cn1)C(=O)N[C@@H](CCC(=O)O)C(=O)N[C@@H](CC(C)C)C(=O)N[C@@H](C)C(=O)N[C@H](C(=O)N[C@@H](CC(C)C)C(=O)N1CCC[C@H]1C(=O)N[C@@H](CCCNC(=N)N)C(=O)N[C@H](C(=O)N[C@@H](CCC(=O)O)C(=O)N[C@H](C(=O)NCC(=O)N1CCC[C@H]1C(=O)N[C@@H](CCC(=O)O)C(=O)N[C@@H](CO)C(=O)N1CCC[C@H]1C(N)=O)[C@@H](C)O)[C@@H](C)O)[C@@H](C)O
notes: also called Ex. #10
B4: [N-terminal(C18 diacid), 9L, 10A]mimylin (peptide)
peptide: {C18 diacid}-EASELSTALAGRLSAELHELATLPRTETGPESP-NH2
SMILES: CC(C)C[C@H](NC(=O)[C@H](C)NC(=O)[C@@H](NC(=O)[C@H](CO)NC(=O)[C@H](CC(C)C)NC(=O)[C@H](CCC(=O)O)NC(=O)[C@H](CO)NC(=O)[C@H](C)NC(=O)[C@H](CCC(=O)O)NC(=O)CCCCCCCCCCCCCCCCC(=O)O)[C@@H](C)O)C(=O)N[C@@H](C)C(=O)NCC(=O)N[C@@H](CCCNC(=N)N)C(=O)N[C@@H](CC(C)C)C(=O)N[C@@H](CO)C(=O)N[C@@H](C)C(=O)N[C@@H](CCC(=O)O)C(=O)N[C@@H](CC(C)C)C(=O)N[C@@H](Cc1c[nH]cn1)C(=O)N[C@@H](CCC(=O)O)C(=O)N[C@@H](CC(C)C)C(=O)N[C@@H](C)C(=O)N[C@H](C(=O)N[C@@H](CC(C)C)C(=O)N1CCC[C@H]1C(=O)N[C@@H](CCCNC(=N)N)C(=O)N[C@H](C(=O)N[C@@H](CCC(=O)O)C(=O)N[C@H](C(=O)NCC(=O)N1CCC[C@H]1C(=O)N[C@@H](CCC(=O)O)C(=O)N[C@@H](CO)C(=O)N1CCC[C@H]1C(N)=O)[C@@H](C)O)[C@@H](C)O)[C@@H](C)O
notes: also called Ex. #27
B5: [N-terminal(C18 diacid), 8L]mimylin (peptide)
peptide: {C18 diacid}-EASELSTLALGRLSAELHELATLPRTETGPESP-NH2
SMILES: CC(C)C[C@H](NC(=O)[C@H](C)NC(=O)[C@H](CC(C)C)NC(=O)[C@@H](NC(=O)[C@H](CO)NC(=O)[C@H](CC(C)C)NC(=O)[C@H](CCC(=O)O)NC(=O)[C@H](CO)NC(=O)[C@H](C)NC(=O)[C@H](CCC(=O)O)NC(=O)CCCCCCCCCCCCCCCCC(=O)O)[C@@H](C)O)C(=O)NCC(=O)N[C@@H](CCCNC(=N)N)C(=O)N[C@@H](CC(C)C)C(=O)N[C@@H](CO)C(=O)N[C@@H](C)C(=O)N[C@@H](CCC(=O)O)C(=O)N[C@@H](CC(C)C)C(=O)N[C@@H](Cc1c[nH]cn1)C(=O)N[C@@H](CCC(=O)O)C(=O)N[C@@H](CC(C)C)C(=O)N[C@@H](C)C(=O)N[C@H](C(=O)N[C@@H](CC(C)C)C(=O)N1CCC[C@H]1C(=O)N[C@@H](CCCNC(=N)N)C(=O)N[C@H](C(=O)N[C@@H](CCC(=O)O)C(=O)N[C@H](C(=O)NCC(=O)N1CCC[C@H]1C(=O)N[C@@H](CCC(=O)O)C(=O)N[C@@H](CO)C(=O)N1CCC[C@H]1C(N)=O)[C@@H](C)O)[C@@H](C)O)[C@@H](C)O
notes: also called Ex. #15
B6: [N-terminal(C18 diacid), 9V, 10I]mimylin (peptide)
peptide: {C18 diacid}-EASELSTAVIGRLSAELHELATLPRTETGPESP-NH2
SMILES: CC[C@H](C)[C@H](NC(=O)[C@@H](NC(=O)[C@H](C)NC(=O)[C@@H](NC(=O)[C@H](CO)NC(=O)[C@H](CC(C)C)NC(=O)[C@H](CCC(=O)O)NC(=O)[C@H](CO)NC(=O)[C@H](C)NC(=O)[C@H](CCC(=O)O)NC(=O)CCCCCCCCCCCCCCCCC(=O)O)[C@@H](C)O)C(C)C)C(=O)NCC(=O)N[C@@H](CCCNC(=N)N)C(=O)N[C@@H](CC(C)C)C(=O)N[C@@H](CO)C(=O)N[C@@H](C)C(=O)N[C@@H](CCC(=O)O)C(=O)N[C@@H](CC(C)C)C(=O)N[C@@H](Cc1c[nH]cn1)C(=O)N[C@@H](CCC(=O)O)C(=O)N[C@@H](CC(C)C)C(=O)N[C@@H](C)C(=O)N[C@H](C(=O)N[C@@H](CC(C)C)C(=O)N1CCC[C@H]1C(=O)N[C@@H](CCCNC(=N)N)C(=O)N[C@H](C(=O)N[C@@H](CCC(=O)O)C(=O)N[C@H](C(=O)NCC(=O)N1CCC[C@H]1C(=O)N[C@@H](CCC(=O)O)C(=O)N[C@@H](CO)C(=O)N1CCC[C@H]1C(N)=O)[C@@H](C)O)[C@@H](C)O)[C@@H](C)O
notes: also called Ex. #26
B7: [N-terminal(C18 diacid), 6H]mimylin (peptide)
peptide: {C18 diacid}-EASELHTAALGRLSAELHELATLPRTETGPESP-NH2
SMILES: CC(C)C[C@H](NC(=O)[C@H](C)NC(=O)[C@H](C)NC(=O)[C@@H](NC(=O)[C@H](Cc1c[nH]cn1)NC(=O)[C@H](CC(C)C)NC(=O)[C@H](CCC(=O)O)NC(=O)[C@H](CO)NC(=O)[C@H](C)NC(=O)[C@H](CCC(=O)O)NC(=O)CCCCCCCCCCCCCCCCC(=O)O)[C@@H](C)O)C(=O)NCC(=O)N[C@@H](CCCNC(=N)N)C(=O)N[C@@H](CC(C)C)C(=O)N[C@@H](CO)C(=O)N[C@@H](C)C(=O)N[C@@H](CCC(=O)O)C(=O)N[C@@H](CC(C)C)C(=O)N[C@@H](Cc1c[nH]cn1)C(=O)N[C@@H](CCC(=O)O)C(=O)N[C@@H](CC(C)C)C(=O)N[C@@H](C)C(=O)N[C@H](C(=O)N[C@@H](CC(C)C)C(=O)N1CCC[C@H]1C(=O)N[C@@H](CCCNC(=N)N)C(=O)N[C@H](C(=O)N[C@@H](CCC(=O)O)C(=O)N[C@H](C(=O)NCC(=O)N1CCC[C@H]1C(=O)N[C@@H](CCC(=O)O)C(=O)N[C@@H](CO)C(=O)N1CCC[C@H]1C(N)=O)[C@@H](C)O)[C@@H](C)O)[C@@H](C)O
notes: also called Ex. #16

Molecular target: T1, human calcitonin receptor
Experiment: whole-cell competition vs 125I-human calcitonin (Assay VIIa)
Procedure: The binding assay was performed using a BHK tk'ts 13 cell line was stably transfected with the human calcitonin receptor, and a CRE-responsive luciferase reporter gene.
The day before the assay the cells were Seeded into Poly-D-Lysin coated 384W Opaque White, BD BioCoat plates (10000 cells/well) and Incubated overnight at 37° C., 5% CO2, 95% humidity. […] The morning after, the plates were washed three times in HBSS (4° C.), and lyzed in Lysis buffer (0.1 M NaOH), 1% SDS. Scintillation cocktail (MicroScint40®) was added and the plates were shaken at 500 rpm for a short period. The plate was incubated at room temperature in the dark for 1 hour and Read on a TopCounter™ (Packard). The IC₅₀ was calculated using (one site binding competition analysis) GraphPad Prism5 as a measure of receptor affinity.

Row | IC50 [nM] | Binder
1 | 0.749 | B1
2 | 0.752 | B2
3 | 0.523 | B3
4 | 0.219 | B4
5 | 0.473 | B5
6 | 0.57 | B6
7 | 0.981 | B7
